Measurements: patent US20120020975A1 (published 2012)

Molecular target: T1, mouse PCSK9, mPCSK9-8xHIS (mouse, UniProt Q80W65 35-694, limits assumed)
T1 construct: also called His-tagged mouse PCSK9; biotinylated-mouse PCSK9
Test: KinExA solution equilibrium
Description: Equilibrium dissociation constant (KD) were obtained from nonlinear regression of the two sets of competition curves using a one-site homogeneous binding model. The KinExA® Pro software was employed in the analysis.

B1: 16F12, anti-PCSK9 huIgG4 (antibody, V domains shown)
VH: QVHLVESGGGVVQPGRSLRLSCAASGFTFNSFGMHWVRQAPGKGLEWVALIWSDGSDEYYADSVKGRFTISRDNSKNTLYLQMNSLRAEDTAVYYCARAIAALYYYYGMDVWGQGTTVTVSS
VL: QSVLTQPPSVSAAPGQKVTISCSGSSSNIGNNFVSWYQQLPGTAPKLLIYDYNKRPSGIPDRFSGSKSGTSATLGITGLQTGDEADYYCGTWDSSLSAYVFGTGTRVTVLQ
notes: also called 16F12.1
fold lower affinity than to human and cyno PCSK9: 10 to 250 fold
